US20210285965A1 (SEATTLE CHILDREN S HOSPITAL D B A SEATTLE CHILDREN S …, published 2021)

How the values were obtained:
Experiment in all cases: immunoaffinity peptide capture on mAb-Protein G magnetic beads, read by SRM-MS (immuno-SRM); ELISA screening
[1] = molecular target: T1, CD42 128-137 signature peptide (LTSLPLGALR)
T1 construct: Endogenous tryptic peptide of CD42 (glycoprotein Ib) from digested dried blood spots of patients and normal controls
T1 peptide: LTSLPLGALR

[2] = molecular target: T2, DOCK8 1272-1283 signature peptide (TSGIVLSSLPYK)
T2 construct: Endogenous tryptic peptide of DOCK8 from digested dried blood spots of patients and normal controls
T2 peptide: TSGIVLSSLPYK

[3] = molecular target: T3, CD56 122-130 signature peptide (NAPTPQEFR)
T3 construct: Endogenous tryptic peptide of CD56 (NCAM) from digested dried blood spots of patients and normal controls
T3 peptide: NAPTPQEFR

[4] = molecular target: T4, CD42 154-165 signature peptide (TLPPGLLTPTPK)
T4 construct: Endogenous tryptic peptide of CD42 (glycoprotein Ib) from digested dried blood spots of patients and normal controls
T4 peptide: TLPPGLLTPTPK

[5] = molecular target: T5, SH2D1A 19-32 signature peptide (LLLATGLDGSYLLR)
T5 construct: Tryptic peptide of SH2D1A (SAP); also called SAP
T5 peptide: LLLATGLDGSYLLR

[6] = molecular target: T6, ADA 93-101 signature peptide (EGVVYVEVR) (human)
T6 peptide: EGVVYVEVR

[7] = molecular target: T7, ATM 1561-1572 signature peptide (LLDPFPDHVVFK)
T7 construct: Endogenous tryptic peptide of ATM from digested dried blood spots of normal controls
T7 peptide: LLDPFPDHVVFK

[8] = molecular target: T8, CYBB 509-521 signature peptide (TLYGRPNWDNEFK)
T8 construct: Endogenous tryptic peptide of CYBB from digested dried blood spots of patients and normal controls
T8 peptide: TLYGRPNWDNEFK

B1: anti-CD42 128 monoclonal antibody (antibody, V domains shown)
VH: QAYLQQSGAVLVRPGASVKMSCKASGYTFSSYNIHWVKQTPRQGLEWIGGIYPGNGDTSYNKKFKDKATLTVDKSSNTAYMHLSSLTSEDSAVFFCASDGTRYWGQGTTLTVSS
VL: EVVMTQTPLTLSVTIGQAVSISCTSSQSLLASDGKTYLNWLLQRPGQSPKRLIYLVSKLDSGVPDRFTGSGSGTDFTLKISRVEADDLGVYCCWQGAHSPLTFGAGTRLELK
notes: Hybridoma antibody; also called Hybridoma SJSH4 3B8-1b
binding result [1]: binds

B2: anti-DOCK8 1272 monoclonal antibody (antibody, V domains shown)
VH: EVQLQQSGTVLARPGASVKMSCKASGYTFTSYWMHWVKQRPGQGLEWIGAIFPGNSNTRYNQKFKGKAKLTAVTSASTAYMELSSLTNEDSAVYYCADDNAFDYWGQGTTLTVSS
VL: QIVLTQSPAIMSASPGEKVTMTCSASSSVSSRYLHWYQQKSGASPKLWIYGTSNLSSGVPDRFSGSGSGTSYSLTISSVETEDAATYYCQQYHSDPFTFGTGTKLEIK
notes: Hybridoma antibody; also called Hybridoma SJSH5-1C2-2E
binding result [2]: binds

B3: anti-CD56 122 monoclonal antibody (antibody, V domains shown)
VH: QSLEESGGDLVKPGASLTLTCKASGLDFSSNYYMCWVRQAPGKGLEWIACIYSSSLNTWYASWAKGRFTISKSTSLHTVTLQMTSLTAADTATYFCTRGGGVYVGADYGFYFYLWGPGTLVTVSS
VL: DIVMTQTPSSVEAPVGGTVTIKCQASQSIDSWCAWYQQKPGQPPKLLIYKASTLESGVPSRFKGSGSGTEFTLTISDLECADAATYFCQSYYPTTGSDNAFGGGTEVVVKG
notes: Full heavy and light chains without leader; also called clone EB0608C-3H4-H2 / EB0608C-3H4-K2
binding result [3]: binds

B4: anti-CD42 154 monoclonal antibody (antibody, V domains shown)
VH: EVQLQQSGPELVKPGASVKMSCKASGYTFTGYNMHWVKQSHGKSLEWIGDINPKTGENSYNQKFKGKATLTISKSSSTAYMELRSLTSEDSAVYYCVRWGVYYLDHWGQGTTLTVSS
VL: DIVMTQAAFSNPVTLGTSASISCRSTKSLLYSDGITYLYWYLQRPGQSPQLLIYRMSDLASGVPDRFSGSGSGTDFTLRISRVEAEDVGVYYCAQMVEFPPTFGGGTKLEIK
notes: Hybridoma antibody; also called Hybridoma SJSH4-1H11c
binding result [4]: binds

B5: anti-SH2D1A (SAP) 19 monoclonal antibody (antibody, V domains shown)
VH: QSLEESGGRLVTPGGTLTLTCTVSGFSLSSYDMSWVRQAPGKGLEWIGFGNTGGSTYYASWAKGRFTISRTSTTVDLRMTSLTAADTATYFCTRGAPGWITTNMWGPGTLVTVSL
VL: QVLTQTPSPVSAAVGGTVTISCQSSQSVYRNKCLAWYQQKPGQPPKLLIYKASTLASGVPSRFSGSGSGTQFTFTISDLECDDSATYYCVGYYNTNTNTTTFGGGTEVVVKG
notes: Full heavy and light chains without leader; also called Anti-SH2D1A 19; clone EB0612B-2F4-H1 / EB0612B-2F4-K1
binding result [5]: binds

B6: anti-ADA 93 monoclonal antibody (antibody, V domains shown)
VH: QEQLEESGGDLVKPGSSLTLTCTASGFSFTNSDWECWVRQAPGKGLEWIACIYGDSRSGYYASWAKGRFTISKTSSTTVTLQMTTLTAADTATYFCARNLGSLWGPGTLVTVSS
VL: QVLTQTPSSVSAAVGGTVTINCQSSQNVVFNNRLAWFQQKPGQPPKLLIYQASTLASGVPPRFKGSGSGTQFTLTISDLECDDAATYYCLGSYDCSSTDCNTFGGGTEVVVKG
notes: Full heavy and light chains without leader; also called clone EB0608A-3C12-H2 / EB0608A-3C12-K2
binding result [6]: binds

B7: anti-ATM 1561 monoclonal antibody (antibody, V domains shown)
VH: QEQLVESGGGLVQPGGSLTLTCKASGFDFSSGGMCWVRQAPGKGLEWIGCIVNGDGSTYFATWAKGRFTITRTSSTTVTLQMTSLTAADTATYFCWRYWALWGPGTLVTVSS
VL: IVMTQTPSSKSVPVGGTVTINCQASESLYNNNRLAWFQQKPGQPPKLLIYSASTLASGVPDRFSGSGSGTQFTLTISDVVCDDAATYYCVGGRSRVTDGIAFGGGTEAVVKG
notes: Full heavy and light chains without leader; also called clone EB0608D-4A10-H4 / EB0608D-4A10-K1
binding result [7]: binds

B8: anti-CYBB 509 monoclonal antibody (antibody, V domains shown)
VH: QSLEESGGGLVKPGASLTLTCTASGFSFSRSYWICWVRQAPGKGLEWLGCIYAGSSGSTYYASWAKGRFTISKTSSTTVTLQMTSLTAADTATYFCARGNNNIIILDLWGPGILVTVSS
VL: AVLTQTPSPVSAAVGGTVTISCQASQSVYNNNALSWYQQKPGQPPKLLIYDASDLAPGVPSRFSGSGSGTQFTLTISDVQCDDAATYYCLGGYSVSSDNAFGGGTEVVVNG
notes: Full heavy and light chains without leader; also called clone EB0611C-1E12-H2 / EB0611C-1E12-K2
binding result [8]: binds
